In this assay the target is YFP-tagged CREB-binding protein (UniProt Q92793). The experiment in a line: MST.
Chain of UniProt Q92793 (Q92793 whole entry): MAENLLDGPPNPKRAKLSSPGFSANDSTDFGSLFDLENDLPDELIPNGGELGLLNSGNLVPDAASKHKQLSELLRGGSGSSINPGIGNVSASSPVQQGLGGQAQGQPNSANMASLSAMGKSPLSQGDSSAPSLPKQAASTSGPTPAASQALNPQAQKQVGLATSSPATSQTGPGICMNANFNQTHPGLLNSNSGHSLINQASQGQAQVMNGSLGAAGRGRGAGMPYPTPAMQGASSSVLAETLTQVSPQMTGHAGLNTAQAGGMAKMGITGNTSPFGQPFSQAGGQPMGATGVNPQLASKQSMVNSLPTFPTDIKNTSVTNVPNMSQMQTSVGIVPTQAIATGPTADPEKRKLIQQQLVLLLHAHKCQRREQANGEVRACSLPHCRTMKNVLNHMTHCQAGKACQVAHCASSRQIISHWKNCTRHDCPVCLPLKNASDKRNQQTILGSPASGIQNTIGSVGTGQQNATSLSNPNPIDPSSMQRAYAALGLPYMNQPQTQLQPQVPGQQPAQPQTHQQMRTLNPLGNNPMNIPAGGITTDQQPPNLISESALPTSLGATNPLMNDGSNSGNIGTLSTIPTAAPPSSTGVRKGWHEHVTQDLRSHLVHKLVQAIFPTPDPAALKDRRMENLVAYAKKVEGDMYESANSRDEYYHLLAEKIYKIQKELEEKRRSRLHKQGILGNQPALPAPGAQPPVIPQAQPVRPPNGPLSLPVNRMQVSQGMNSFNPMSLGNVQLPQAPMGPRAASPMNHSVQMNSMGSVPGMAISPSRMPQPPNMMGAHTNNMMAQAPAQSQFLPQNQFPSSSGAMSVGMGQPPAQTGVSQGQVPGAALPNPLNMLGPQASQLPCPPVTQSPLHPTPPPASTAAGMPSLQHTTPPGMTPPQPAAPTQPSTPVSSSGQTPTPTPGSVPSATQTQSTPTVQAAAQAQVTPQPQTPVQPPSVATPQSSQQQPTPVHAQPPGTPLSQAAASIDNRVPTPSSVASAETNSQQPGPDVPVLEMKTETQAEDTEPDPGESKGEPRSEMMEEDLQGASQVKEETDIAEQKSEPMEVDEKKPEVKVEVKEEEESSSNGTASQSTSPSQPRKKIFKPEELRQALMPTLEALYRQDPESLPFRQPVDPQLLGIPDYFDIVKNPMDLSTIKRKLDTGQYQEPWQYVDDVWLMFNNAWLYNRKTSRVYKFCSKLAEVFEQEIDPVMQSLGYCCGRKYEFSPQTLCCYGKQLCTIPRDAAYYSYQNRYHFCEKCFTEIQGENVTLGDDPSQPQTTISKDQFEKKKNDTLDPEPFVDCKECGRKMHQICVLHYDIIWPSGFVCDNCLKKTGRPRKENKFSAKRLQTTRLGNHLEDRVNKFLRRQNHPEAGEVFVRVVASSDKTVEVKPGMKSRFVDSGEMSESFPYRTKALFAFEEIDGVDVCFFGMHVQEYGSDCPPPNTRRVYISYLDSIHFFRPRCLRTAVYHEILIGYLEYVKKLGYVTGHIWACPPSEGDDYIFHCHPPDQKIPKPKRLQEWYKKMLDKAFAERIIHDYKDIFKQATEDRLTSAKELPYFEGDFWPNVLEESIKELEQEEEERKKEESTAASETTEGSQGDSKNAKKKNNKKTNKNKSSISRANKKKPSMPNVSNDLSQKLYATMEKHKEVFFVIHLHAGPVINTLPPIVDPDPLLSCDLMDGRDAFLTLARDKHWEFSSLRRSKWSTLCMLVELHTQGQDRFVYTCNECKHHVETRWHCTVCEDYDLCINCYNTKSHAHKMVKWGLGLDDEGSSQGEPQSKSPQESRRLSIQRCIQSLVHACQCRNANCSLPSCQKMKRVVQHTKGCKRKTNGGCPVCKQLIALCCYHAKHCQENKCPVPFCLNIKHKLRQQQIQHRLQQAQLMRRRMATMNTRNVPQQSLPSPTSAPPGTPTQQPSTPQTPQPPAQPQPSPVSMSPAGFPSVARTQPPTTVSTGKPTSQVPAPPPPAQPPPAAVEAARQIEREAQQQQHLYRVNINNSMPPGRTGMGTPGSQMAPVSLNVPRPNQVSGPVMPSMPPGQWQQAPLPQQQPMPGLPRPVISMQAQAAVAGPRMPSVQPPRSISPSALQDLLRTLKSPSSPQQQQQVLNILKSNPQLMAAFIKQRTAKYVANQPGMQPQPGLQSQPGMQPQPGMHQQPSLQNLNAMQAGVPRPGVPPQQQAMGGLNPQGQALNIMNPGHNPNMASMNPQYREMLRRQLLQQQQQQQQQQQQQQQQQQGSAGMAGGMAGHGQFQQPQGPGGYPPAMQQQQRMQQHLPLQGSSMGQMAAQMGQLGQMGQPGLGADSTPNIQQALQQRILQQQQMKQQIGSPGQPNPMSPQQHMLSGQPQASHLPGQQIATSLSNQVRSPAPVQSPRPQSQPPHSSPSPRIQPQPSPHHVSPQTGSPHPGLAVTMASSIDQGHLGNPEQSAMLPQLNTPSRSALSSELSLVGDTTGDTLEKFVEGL

In turn, “HA-tagged human thymine DNA glycosylase P65A mutant (from UniProt Q13569 1-410) (enzyme)” returned a fold decrease of affinity against wild-type HA-TDG of over 3 fold.

(Values after article PMC4411359.)
